Test [1] has as its target AnPrx6, Prx6 (1-Cys peroxiredoxin) from Anabaena sp. strain PCC 7120 (Anabaena sp. PCC 7120). As to the kind of experiment: SAXS; 1.6 mg/ml and 4.8 mg/ml protein; mass from Hen Egg White Lysozyme standard and from Porod volume.
Test [2] shares this target. As to the kind of experiment: SEC; analytical SEC at 0.1, 1 and 10 mg/ml protein, without or with 20 mM H2O2; BioRad Gel Filtration Standard. (In general: Size exclusion chromatography separates by hydrodynamic size, large species first.)

The text below walks through data of publication PMC5719442.

The stoichiometry N is the number of molecules, sites or subunits per partner or assembly. For the substance “AnPrx6, Prx6 (1-Cys peroxiredoxin) from Anabaena sp. strain PCC 7120 (enzyme)”, the stoichiometry N in test [1] and in test [2] was 2 each time.
